A short description of this data set: yeast display, Sf9 membrane polyspecificity reagent, FACS + sequencing; frameworks hold sequencing errors. In a few lines:
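After 36–48 hours of galactose induction, yeast (Saccharomyces cerevisiae BJ5465) displaying a synthetic nanobody library were stained at 4 °C for 1 hour with 10% biotinylated, detergent-solubilized Sf9 membrane reagent. Streptavidin microbeads enriched the stained cells before FACS sorting into low and high (top ~1%) gates on anti-HA and streptavidin fluorescence. Each clone's polyreactivity label reflects its gate of origin.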
Consider “QVQLQECGGGLVQAGGSLRLSCAASVNIFDADIMGSYRQAPGKERELVASVTDGGSTNYADSVKGRFTISRDNAKNTVYLQMNSLKPEDTAVYYCAGIVYPDILTFFDYDYDYFYWGQGTQVTVGS”, for which the “polyreactivity (PSR sort gate)” value is on record as “low polyreactivity”. With “QVQLVESGGGLVQAGGSLRLSCAASGGIFDGNAMGWYRQAPGKERELVAAISSGGITKYADSVKGRFTISRDNAKNTVYLQKNSLKPEDTAVYYCAASWYRYRFIRYDYWGQGTQVTVSS”, the “polyreactivity (PSR sort gate)” value is listed as “high polyreactivity”.

Consider “QVQLVESRGGLVQAGGSLRLSCAASGSIFRPYAMGWYRQAPGKERELVAAISSSGGSTYYADSVKGRFTISRDNAKNTVYLQMNSLKPEDTAVYYCAAESRSTWIHSRDYWGQGTQVTVSS”, for which the “polyreactivity (PSR sort gate)” value is listed as “low polyreactivity”.

As to “QVQLVESGGGLVQAGGSLRLSCAASGFTFYKNTMGWYRQAPAKARELVAAISSSGSSTYYADSVKGRFTISRDYAKNTVYLQMNSLKPEDTAVYYCAAGRFAYHDDYWGQGTQVTVSS”, the “polyreactivity (PSR sort gate)” value is “high polyreactivity”. The entry for “QVQLVESGGGLVQAGGSLRLSCAASGRTFDYNAMGWYRQAPGKERELVAAISSSGGSTYYADSVKGRFTISRDNAKNTVYLQMNSLKAEDTAVYYCATLYPRKSIYYYWGQGTQVTVSS” is “high polyreactivity”; for “QVQLVESGGGLVQAGGSLRLSCAASGSIFFVYAMGWYRQAPGKERELVAGISGRDGSTYYADSVKGRFTISRDNAKNTVYLQMNSLKPEDTAVYYSARVYWGQGTQVTVSS” it is “low polyreactivity”; for “QVQLVESAGGLVQAGGSLRIICAASGRIFSVNSMGGYRQAPGKERELDATIRTDGTTNYADSVKGRFTISRDNAKNTVYLQMNSLQPGDPAVYYCNARIPYSWRYGYWGQGTQVTVSS” it is “high polyreactivity”.

Regarding “QVQLVESGGGLVQAGGSLRLSCAASGYTFKTNDMGWSRQAPGKEREFVAAIDSGGNTYYADSVKGRFTISRDNAKNTVYLQMNSLKPEDTAVYYCAAYRDYQYDYWGQGTQVTVSS”, the “polyreactivity (PSR sort gate)” value is given as “low polyreactivity”.

Turning to “QVQLVESGGRLVQAGGSLRLSCAASGRTFRWYAMGWYRQAPGKEREVVAAITFSGGSTYYADSVKGRFTISRDIAKNTVYLQMNSLKPEDTAVYYCNAVYYRRKEYDYWGQGTQVTVSS”, the “polyreactivity (PSR sort gate)” value is reported as “high polyreactivity”.

As for “QVQLVESGGGLVQAGGSLRLSCAASGSTFYYNSMGWYRQAHGKERQLVAAISKSSTRTYYADSVKGRFTISRDNAQNTVYLQMNSLKPEDTAVYYCAARQWRRSRFDYWGQGTQVNVSS”, the “polyreactivity (PSR sort gate)” value was “high polyreactivity”.

With “QVQLVESGGGLVQAGGSLRLSCAASGSTFGNNAMGWYRQAPGKERELVAAITFRGTSTYADSVKGRFTISRDNAKNTVSLQMNSLKPEDTAVYYCAAVVYFVSYRFYYWGQGTQVTVSS”, the “polyreactivity (PSR sort gate)” value was “high polyreactivity”.

Consider “QVQLVESGGGLVQAGGSLRLSCAASGITIVNYVMGWYRQAPGKERELVAAISIGGGTYYADSVKGRFTISRDNAKNTVYLQMNSLKPEDTAVYYCNARSEVSYWWGGYWGQGTQVTVSS”, for which the “polyreactivity (PSR sort gate)” value is given as “low polyreactivity”.

Take “QVQLVESGGGLVQAGGSLRLSCAASGSTFVRYTMGWYRQAPGKERELVAGITGGGSTNYADSVKGRFTISRDNAKNTVYLQMNSLKPEDTAVYYCAADLWWERAYPEYDYWGQGTQVTVSS”: the “polyreactivity (PSR sort gate)” value was “low polyreactivity”. Under “QVQLGESVGGLVQAGGSLRLSCAASGFIIGYYAMGWYRPPPGTERELVAAISSTGGSTYYADSVKGRFTISRDNAKNTVYLQMNSLNPEDTAVYYCAKRFASYRYHPGYDYWGQGTQVTVSS” stands “high polyreactivity”; under “QVQLVESGGGLVEAGGSLRLSCAASGRTFANNAMGWYRQAPGKERELVARISNSGSTNYADSVKGRFTISRDNANNTVYLQMNSLNPEDTAVYYCAARIVRLYSRYDYWGQGTQVTVSS”, “low polyreactivity”; under “QVQLVESGGGLVQAGGSLRLSCAASGPISAIYDMGWDRQAPGKERELVASISGGTSTYYADSVKGRFTISRDNAKNTVYLQMNSLKPEDTAVYYCNAEASSYHGVEDEYDYWGQGTQVTVSS”, “low polyreactivity”. Under “QVQLVESGGGLVQAGGSLRLTCAASGITFYDNAMGWYRQAPGKERELVAGISYDGDSTYADSVKGRFTNSRDNAKNTVYLQMNSLKPEDTAVYYCAADSSGEYPGGYWGQGTQVTVSS” stands “low polyreactivity”; under “QVQLVESGRGLVQAGCSLRLTCAASGSIFPQYAMGWYRQAPGQERELVAAITRSGGGTHYADSVKGRFTISRDNAKNTVYLQMNSLKPEDTAVYYCAKAGYRSEFEYWGQGTQVTVSS”, “low polyreactivity”; under “QVQLVESGGGLVQAGGSLRLSCAASGLTFPHNAMGWYRQAPGKERELVAAITSSGGSTYYADSVKGRFTISRDNAKNTVYIQMNSLKPEDTAVYYCAAKRKPRPSYRYGYWGQGTQVTVSS”, “high polyreactivity”. As to “QVQLVESGGGLVQAGGSLRLSCAASGSIFDHYTMGWYRQAPGKERELVARISSRGGSTYYADSVKGRFTISRDNAKNTVYLQMNSLKPEDTAVYYCAAYKKLLYYKFGSWGQGTQVTVSS”, the “polyreactivity (PSR sort gate)” value was “high polyreactivity”.

Turning to “QVQLVESGGGLVQAGGSLRLSCAASGSIFYYYAMGWYRQAPGKERELVAAITSGGSTYYADSVKGRFTISRDNAKNTVYLQMNSLKPEDTAVYYCAAYGYYRGYPFHWYDYWGQGTQVTVSS”, the “polyreactivity (PSR sort gate)” value is given as “high polyreactivity”. The entry for “QVQLVESGGGLVQAGGSLRLSCAASGRSFGTYAMGWYRQAPGKERELVAAISRSGGRTYYADSVKGRFTISRDNAKNTVYLQMNSLKPEDTAVYYCAAATGSVPPYDYWGQGTQVTVSS” is “high polyreactivity”; for “QVQLVESGGGLVQAGGSLRLICAASGIIFFRYAMGWYRQAPGKERELVASIRAIGGSTSYADSVKGRFTISRDNAKNTVYLQMNSLKPEDTAVFYCAARQNYRYGYWGQGTQVTVSS” it is “high polyreactivity”; for “QVQLVESGGGLVQAGGSLRLSCAASRSTFSDNAMGWYRQAPGKERELVAAISRSGGSTYYADSVKGRFTISRDTAKNTVYLQMNSLKPEDTAVYYCATKRVLTGYDSWGQGTQVTVSS” it is “high polyreactivity”. The entry for “QVQLVESGGGLVQAGGSLRLSCAASGFIFVVYTMGWYRQAPGKERELVAAITSGGSTYYADSVKGRFTISRDNAKNTVYLQMNSLKPEDTAVYYCYALASRYPAYYYWGQGTQVTVSS” is “low polyreactivity”; for “QVQHVESGGGLVQAGGSLRLSCAASGSTFRYYAMGWYRQAPGKERELVAAITSSGTSTYYADSVKGRFTISRDNAKNTVYLQMNSLKPEDTAVYSCAAPPVYKWVSSRYDYWGQGTQVTVSS” it is “low polyreactivity”.

Consider “QVQLVESGGGLVQAGGSLRLSCAASGRIFFRYAMGWYRQAPGKERELVASIRFRGGSTYYADSVKGRFTISRDNAKNTVYLQLNSLKPVDTAVYYCATPGSFTGTQRTGDYWGQGTQVTVSS”, for which the “polyreactivity (PSR sort gate)” value is listed as “high polyreactivity”. Regarding “QVQLVESGGGLVQAGGSLRLSCAASGSIFDVYAMGWYRLAPGKERELVAAINWTGGSTYYADSVKGRFTISRDNAKNTVYLQMNSLKPEDTAVYYCAASYYYGTEHYDYWGQGTQVTVSS”, the “polyreactivity (PSR sort gate)” value was “low polyreactivity”.

For the sequence “QVQLVESGGGLVQAGGSLRLSCAASGSTFRQNAMGWYRQAPGKERELVAAITYRVASTYYADSVKGRFTISRDNAKNTVYLQMNSLKPEDSAVYYCAAYKRRSNGRYWTYDYWGQGSQVTVSS”, the “polyreactivity (PSR sort gate)” value is given as “high polyreactivity”.

Consider “QVQLVESGGGLVQAGGSLRLSCAASGRIFSIYGMGWYRQAPGKERELVAVISGSVGITYYADSVKGRFTISRDNAKHTVYLQMNSLKPEDTAVYYCNAKVRRRKYDYWGQGTQVTVSS”, for which the “polyreactivity (PSR sort gate)” value was “high polyreactivity”. Under “QVQLVESGGGLVQAGGSLRLSCAASGYIFYTYAMGWYRQAPGKERELVAGITGSGGSTYYADSVKGRFTISRDNAKNTVYLQMNSLKPEDTAVYYCANDIYQIGYRRYDSWGQGTQVTVSS” stands “low polyreactivity”; under “QVQLVESGGGLVQAGGSLRLSCAASGSTLYPYAMGWYRQAPGKERELVAVITKSGGRTYYADSVKGRFTISRDNAKNTVYLQMNSLKPEDTAVYYCAAKSTYGRLGGDSWGQGTQVTVSS”, “high polyreactivity”; under “QVQLVESGGGLVQAGGSLRLSCAASGSIFDQYAMGWYRPAPGKERELVAAIDTSGGSTYYADSVKGRFTISRDNAKNTVYLQMNSLKPEDTAVYYCNAGGDGDILTTEMDYWGPGTQVTVSS”, “low polyreactivity”. In the case of “QVQLVESGGGLVQAGGSLRLSCAASGYTFASYTLGWYRQAPGKERELVATISRGGGRTYYADSVKGRFTISRDNAKNTVYLQMNSLKPEDTAVYYCAARWWYYNGGRDYWGQGTQVTVSS”, the “polyreactivity (PSR sort gate)” value is “high polyreactivity”.

With “QVQLVESGGGLFQAGGSLRLSCAASGFIFSYNAMGWYRQAPGKERELVAAISSSGGTTYYADSVKGRFTISRDNAKNTVYLQMNSLKPEDTAVYYCNARWHAEYDYWGQGTQVTVSA”, the “polyreactivity (PSR sort gate)” value is on record as “low polyreactivity”. The entry for “QVQLVESGGGLVQAGGSLRLSCAASGSIFWYNTMGWYRPAPGKERELVAAISKSGTSTYYADSVKGRFTISRDNAKNTVYLQMNSLKPEDTAVYYCAAALPGYGDYYYWGQGTQVTVSS” is “high polyreactivity”. The entry for “QVQLVESGGGLVQAGGSLRLSCAASGSTFYLNAMGWYRQAPGKERELVASITWSGGRTYYADSVKGRFTISRDNAKNTVYLQMNSLKPEDTAVYYCAADPVWGRYIKYDYWGQGTQVTVSS” is “high polyreactivity”; for “QVQLVESGVCLVQAGGSLRLSCAASGIIISTYAMGWYRQAPGKERELVAAITWGGTRTNYADSVKGRFTISRDNAKNTVYLQMKSLKPEDTAVYYCAASYVRDSYTHGSWGQGTQVTVSS” it is “low polyreactivity”. On to “QVQLVESGGGLVQAGCSGSLSCAASGRIFQRNSMGWYRQAPGKEREFVAAITKSGGGTYADSVKGRFTISRDNAKNTVYLQMNSLKPEDTAVYYCNVVPVWRPYSLINWQKHFGYWGQGTQVTVSS”, for which the “polyreactivity (PSR sort gate)” value is “high polyreactivity”. The entry for “QVQLVESGGGLVQAGGSLRLSCAASGSTFGLYVMGWYRQAPGKERELVAAINRICSRTYYADSVKGRFTISRDNAKNTVYLQMNSLKPEDTAVYYCAADYDYTSPGDDYWGQGTQVTVSS” is “high polyreactivity”; for “QDQLVESWVGLVQAGGSLRLSYAASGYIIKYNAMGRYRHAPRKERELVAAISSIGGRTYYADSVKARFTISRDNAKNNVYLQINILKPEDTAVYYFNAVGGRYTGWRYDYWGQGTQVTVSS” it is “high polyreactivity”.
